Bridges are numbered along the chain shown (N, C = ends). [ ]: non-standard residue; d: D form. Oic = O=C(O)[C@@H]1C[C@@H]2CCCC[C@@H]2N1; Trx = NC[C@H]1CC[C@H](C(=O)O)CC1; tBuAla = CC(C)(C)C[C@H](N)C(=O)O; Pen = CC(C)(S)[C@H](N)C(=O)O; NMeC = CN[C@@H](CS)C(=O)O; Abu = CC[C@H](N)C(=O)O; Ahx = NCCCCCC(=O)O; GABA = NCCCC(=O)O; Sar = CNCC(=O)O
T1: recombinant human MASP1 (amino acids 297-699, C-terminal His Tag) (human) (UniProt P48740)
T1 sequence: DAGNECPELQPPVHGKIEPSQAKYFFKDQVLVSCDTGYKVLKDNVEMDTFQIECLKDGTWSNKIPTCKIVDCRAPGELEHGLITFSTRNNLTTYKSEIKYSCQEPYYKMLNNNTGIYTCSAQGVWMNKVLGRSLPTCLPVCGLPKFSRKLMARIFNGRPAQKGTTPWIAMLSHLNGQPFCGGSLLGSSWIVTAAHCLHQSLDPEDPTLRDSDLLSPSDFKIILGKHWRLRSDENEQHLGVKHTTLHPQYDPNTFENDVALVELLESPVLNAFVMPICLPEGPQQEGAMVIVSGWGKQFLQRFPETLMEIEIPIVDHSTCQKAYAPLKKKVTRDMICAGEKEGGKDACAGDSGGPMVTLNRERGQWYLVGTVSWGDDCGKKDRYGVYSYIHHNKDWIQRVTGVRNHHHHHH

T2: recombinant human MASP1 (amino acids 297-699, C-terminal His Tag) (human), P48740
T2 chain: T1 sequence

T3: recombinant rat MASP1 (amino acids 302-704, C-terminal His Tag) (rat), Q8CHN8
T3 chain: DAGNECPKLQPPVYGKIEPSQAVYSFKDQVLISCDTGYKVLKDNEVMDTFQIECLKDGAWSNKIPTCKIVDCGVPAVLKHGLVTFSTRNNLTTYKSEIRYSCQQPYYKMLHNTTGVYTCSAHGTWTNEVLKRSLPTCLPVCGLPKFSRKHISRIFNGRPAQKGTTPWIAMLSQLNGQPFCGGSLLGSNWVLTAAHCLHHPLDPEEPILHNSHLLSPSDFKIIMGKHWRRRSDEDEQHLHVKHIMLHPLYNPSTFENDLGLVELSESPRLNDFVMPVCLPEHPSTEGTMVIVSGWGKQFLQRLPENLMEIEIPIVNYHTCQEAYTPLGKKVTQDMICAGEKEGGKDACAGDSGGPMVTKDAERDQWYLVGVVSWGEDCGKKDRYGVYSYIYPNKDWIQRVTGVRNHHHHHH


Target: recombinant human MASP2 (amino acids 297-686, C-terminal His Tag) (human) (UniProt O00187)
Sequence (O00187 other isoform, or with tags, fused parts or gaps limits assumed): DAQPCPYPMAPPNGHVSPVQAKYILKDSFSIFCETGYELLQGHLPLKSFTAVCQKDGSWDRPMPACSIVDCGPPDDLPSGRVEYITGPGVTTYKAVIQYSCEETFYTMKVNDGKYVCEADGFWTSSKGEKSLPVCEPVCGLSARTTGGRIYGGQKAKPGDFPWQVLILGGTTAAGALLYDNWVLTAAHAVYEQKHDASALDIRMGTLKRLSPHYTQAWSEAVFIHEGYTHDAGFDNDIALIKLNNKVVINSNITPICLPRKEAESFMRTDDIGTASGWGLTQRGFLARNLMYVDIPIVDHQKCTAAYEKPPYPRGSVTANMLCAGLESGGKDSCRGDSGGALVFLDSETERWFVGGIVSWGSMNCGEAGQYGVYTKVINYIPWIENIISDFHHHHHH
Experiment: cell-based or functional assay

Row | Binder | human MASP2 IC50 [µM]
1 | cyclo([Ahx]GICSRS[tBuAla]PPI[NMeC]IPD) (disulfide 4-12; also: TFA salt) [Example 30: (Ahx)**-GIC+SRS-((tBu)A)-PPI-((N-Me)C)+-IPD**] | 0.065
2 | cyclo(AGAICSRS[tBuAla]PPI[NMeC]IPD) (disulfide 5-13; also: TFA salt) [Example 31: A**GAIC+SRS-((tBu)A)-PPI-((N-Me)C)+-IPD**] | 0.13
3 | G[Trx]GICSRS[tBuAla]PPI[NMeC]IPD-NH2 (disulfide 5-13; lactam N-16; also: TFA salt) [Example 69: G**-(TXA)-GIC+SRS-((tBu)A)-PPI-((N-Me)C)+-IPD++-NH2] | 0.19
4 | [Ahx][Sar]GICSRSLP[Oic]I[Pen]IPE-NH2 (disulfide 5-13; lactam N-16; also: TFA salt) [Example 76: (Ahx)**-((N-Me)G)-GIC+SRSLP-(Oic)-I-(Pen)+-IPE++-NH2] | 0.18
5 | [Ahx]GICSRS[tBuAla]PPI[NMeC]IPD-NH2 (disulfide 4-12; lactam N-15; also: TFA salt) [Example 40: (Ahx)**-GIC+SRS-((tBu)A)-PPI-((N-Me)C)+-IPD++-NH2] | 0.09
6 | cyclo([GABA]ICSRS[tBuAla]PPI[NMeC]IPD) (disulfide 3-11; also: TFA salt) [Example 36: (Gamma-Abu)**-IC+SRS-((tBu)A)-PPI-((N-Me)C)+-IPD**] | 0.11
7 | cyclo([Ahx][Abu]ICSRS[tBuAla]PPI[NMeC]IPD) (disulfide 4-12; also: TFA salt) [Example 33: (Ahx)**-(Abu)-IC+SRS-((tBu)A)-PPI-((N-Me)C)+-IPD**] | 0.062

Target: T1, recombinant human MASP1 (amino acids 297-699, C-terminal His Tag) (human)
Experiment: cell-based or functional assay

Row | Binder | human MASP1 IC50 [µM]
8 | cyclo([Ahx]GICSRS[tBuAla]PPI[NMeC]IPD) (disulfide 4-12; also: TFA salt) [Example 30: (Ahx)**-GIC+SRS-((tBu)A)-PPI-((N-Me)C)+-IPD**] | 0.016
9 | cyclo(AGAICSRS[tBuAla]PPI[NMeC]IPD) (disulfide 5-13; also: TFA salt) [Example 31: A**GAIC+SRS-((tBu)A)-PPI-((N-Me)C)+-IPD**] | 0.016
10 | G[Trx]GICSRS[tBuAla]PPI[NMeC]IPD-NH2 (disulfide 5-13; lactam N-16; also: TFA salt) [Example 69: G**-(TXA)-GIC+SRS-((tBu)A)-PPI-((N-Me)C)+-IPD++-NH2] | 0.02
11 | [Ahx][Sar]GICSRSLP[Oic]I[Pen]IPE-NH2 (disulfide 5-13; lactam N-16; also: TFA salt) [Example 76: (Ahx)**-((N-Me)G)-GIC+SRSLP-(Oic)-I-(Pen)+-IPE++-NH2] | 0.0097
12 | [Ahx]GICSRS[tBuAla]PPI[NMeC]IPD-NH2 (disulfide 4-12; lactam N-15; also: TFA salt) [Example 40: (Ahx)**-GIC+SRS-((tBu)A)-PPI-((N-Me)C)+-IPD++-NH2] | 0.0071
13 | cyclo([GABA]ICSRS[tBuAla]PPI[NMeC]IPD) (disulfide 3-11; also: TFA salt) [Example 36: (Gamma-Abu)**-IC+SRS-((tBu)A)-PPI-((N-Me)C)+-IPD**] | 0.0087
14 | cyclo([Ahx][Abu]ICSRS[tBuAla]PPI[NMeC]IPD) (disulfide 4-12; also: TFA salt) [Example 33: (Ahx)**-(Abu)-IC+SRS-((tBu)A)-PPI-((N-Me)C)+-IPD**] | 0.028

Target: T2, recombinant human MASP1 (amino acids …)
Experiment: cell-based or functional assay

Row | Binder | human MASP1 IC50 [µM]
15 | GRCTKSIPPICFPD (modifications not checked) [Bicyclic SFTI-1: G**RC+TKSIPPIC+FPD**] | > 3

Target: recombinant human MASP2 (amino acids 297-686, C-terminal His Tag) (human), O00187
Sequence (O00187 other isoform, or with tags, fused parts or gaps limits assumed): as above
Experiment: cell-based or functional assay

Row | Binder | human MASP2 IC50 [µM]
16 | GRCTKSIPPICFPD (modifications not checked) [Bicyclic SFTI-1: G**RC+TKSIPPIC+FPD**] | > 3

Target: T3, recombinant rat MASP1 (amino acids …)
Experiment: cell-based or functional assay

Row | Binder | rat MASP1 IC50 [µM]
17 | GRCTKSIPPICFPD (modifications not checked) [Bicyclic SFTI-1: G**RC+TKSIPPIC+FPD**] | 1

Target: recombinant rat MASP2 (amino acids 296-685, C-terminal His Tag) (rat), Q9JJS8
Sequence (Q9JJS8 other isoform, or with tags, fused parts or gaps limits assumed): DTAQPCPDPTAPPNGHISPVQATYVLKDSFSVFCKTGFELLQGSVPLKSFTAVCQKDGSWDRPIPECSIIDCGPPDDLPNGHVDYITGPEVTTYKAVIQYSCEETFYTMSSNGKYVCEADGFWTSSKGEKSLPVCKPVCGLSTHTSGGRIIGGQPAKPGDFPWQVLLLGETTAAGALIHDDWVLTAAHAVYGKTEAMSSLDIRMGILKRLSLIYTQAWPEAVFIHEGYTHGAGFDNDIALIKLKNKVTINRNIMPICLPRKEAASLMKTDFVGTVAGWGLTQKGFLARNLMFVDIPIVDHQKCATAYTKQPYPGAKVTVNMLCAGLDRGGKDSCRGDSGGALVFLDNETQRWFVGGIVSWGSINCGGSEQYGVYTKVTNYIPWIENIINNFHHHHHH
Experiment: cell-based or functional assay

Row | Binder | rat MASP2 IC50 [µM]
18 | GRCTKSIPPICFPD (modifications not checked) [Bicyclic SFTI-1: G**RC+TKSIPPIC+FPD**] | 1
